Laboratory results: patent US20200369773A1 (CELDARA MEDICAL, published 2020)

T1: FITC-recombinant mouse Fn14:human Fc (ENZO ALX-522-036F) (mouse, UniProt Q9CR75 28-80, FITC label (site not stated))
T1 construct: Bought reagent; also called FITC-recombinant Fn14; recombinant Fn14; not shown: human Fc
T1 sequence: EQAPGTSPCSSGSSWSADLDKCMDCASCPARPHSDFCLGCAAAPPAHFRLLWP


Molecular target: T1, FITC-recombinant mouse Fn14:human Fc …
Test: flow cytometry; transduced mouse T cells stained with FITC-recombinant mouse Fn14:human Fc
Protocol: Cell samples that were subjected to transduction with pFB vector containing the anti-Fn14 CAR and T2A+mtrCD19 (4A8H_mt19, 4A8L_mt19, 3G5H_mt19, 3G5L_mt19) construct or just the T2A+mtrCD19 (mt19) construct (from Day 8 of Example 1) were harvested, and 0.25×10⁶ cells in 100 μL of FACS buffer were placed in a 96 well round bottom plate. The plate was spun at 500 ref for 1 min at room temperature, and the supernatant was removed. Cells in each well were resuspended in 25 μL of Blocking buffer and incubated on ice for 10 min.
Cells were then added with 150 μL of FACS buffer and spun at 500 ref for 2 min, and the supernatant was removed. This washing step was repeated once more with 200 μL of FACS buffer.
For the same day FACS analysis, cells in each well were resuspended in 250 μL of FACS buffer and analyzed on flow cytometer. For the next day analysis, cells were diluted in 250 μL of Fixation buffer until analyzed the following day. Cells were stored on ice or 4° C., protected from light, until run on FACS machine.

Binder	% anti-Fn14 CAR^+ of CD3^+ cells (staining with FITC-recombinant Fn14)
mouse truncated CD19 (mtrCD19), mock construct without CAR (other, Negative control: mouse T cells transduced with a vector that encodes only mtrCD19 and no CAR; also called mt19; mock transduced cells) RPQKSLLVEVEEGGNVVLPCLPDSSPVSSEKLAWYRGNQSTPFLELSPGSPGLGLHVGSLGILLVIVNVSDHMGGFYLCQKRPPFKDIWQPAWTVNVEDSGEMFRWNASDVRDLDCDLRNRSSGSHRSTSGSQLYVWAKDHPKVWGTKPVCAPRGSSLNQSLINQDLTVAPGSTLWLSCGVPPVPVAKGSISWTHVHPRRPNVSLLSLSLGGEHPVREMWVWGSLLLLPQATALDEGTYYCLRGNLTIERHVKVIARSAVWLWLLRTGGWIVPVVTLVYVIFCMVSLVAFLYCQRAFILRRKRKRMT	1.6%
scFvP3G5VLVH-mCD28H-mCD28TM-mCD28CS-mCD3zICS (anti-Fn14 CAR) (receptor, Chimeric antigen receptor on transduced mouse T cells) DIVLTQSPASLAVSLGQRATISCRANKSVSTSSYSYMHWYQQKPGQPPKLLIKYASNLESGVPARFSGSGSGTDFILNIHPVEEEDAATYYCQHSRELPFTFGSGTKLEIKGGGGSGGGGSGGGGSQVQLQQSGPEVVRPGVSVKISCKGSGYTFTDYGIHWVKQSHAKSLEWIGVISTYNGYTNYNQKFKGKATMTVDKSSSTAYMELARLTSEDSAIYYCARAYYGNLYYAMDYWGQGTSVTVSSIKEKHLCHTQSSPKLFWALVVVAGVLFCYGLLVTVALCVIWTNSRRNRLLQSDYMNMTPRRPGLTRKPYQPYAPARDFAAYRPRAKFSRSAETAANLQDPNQLYNELNLGRREEYDVLEKKRARDPEMGGKQQRRRNPQEGVYNALQKDKMAEAYSEIGTKGERRRGKGHDGLYQGLSTATKDTYDALHMQTLAPR	11.4%
scFvP3G5VHVL-mCD28H-mCD28TM-mCD28CS-mCD3zICS (anti-Fn14 CAR) (receptor, Chimeric antigen receptor on transduced mouse T cells) QVQLQQSGPEVVRPGVSVKISCKGSGYTFTDYGIHWVKQSHAKSLEWIGVISTYNGYTNYNQKFKGKATMTVDKSSSTAYMELARLTSEDSAIYYCARAYYGNLYYAMDYWGQGTSVTVSSGGGGSGGGGSGGGGSDIVLTQSPASLAVSLGQRATISCRANKSVSTSSYSYMHWYQQKPGQPPKLLIKYASNLESGVPARFSGSGSGTDFILNIHPVEEEDAATYYCQHSRELPFTFGSGTKLEIKIKEKHLCHTQSSPKLFWALVVVAGVLFCYGLLVTVALCVIWTNSRRNRLLQSDYMNMTPRRPGLTRKPYQPYAPARDFAAYRPRAKFSRSAETAANLQDPNQLYNELNLGRREEYDVLEKKRARDPEMGGKQQRRRNPQEGVYNALQKDKMAEAYSEIGTKGERRRGKGHDGLYQGLSTATKDTYDALHMQTLAPR	10.8%
